Data on three molecules can be found in patent publication US7326418B2, “Identification of novel factors that block programmed cell death or apoptosis by targeting JNK” (University of Chicago, priority 2001, dated 2008).

The target of this experiment is T1, JNKK2/MKK7 (Homo sapiens, UniProt O14733, Q133P/Q94H).
T1 construct: expressed in transfected cells; host or cells: HEK-293, TNFα-treated or untreated; anti-FLAG immunoprecipitate
T1 sequence (O14733 1-401 Q94H/Q133P limits assumed): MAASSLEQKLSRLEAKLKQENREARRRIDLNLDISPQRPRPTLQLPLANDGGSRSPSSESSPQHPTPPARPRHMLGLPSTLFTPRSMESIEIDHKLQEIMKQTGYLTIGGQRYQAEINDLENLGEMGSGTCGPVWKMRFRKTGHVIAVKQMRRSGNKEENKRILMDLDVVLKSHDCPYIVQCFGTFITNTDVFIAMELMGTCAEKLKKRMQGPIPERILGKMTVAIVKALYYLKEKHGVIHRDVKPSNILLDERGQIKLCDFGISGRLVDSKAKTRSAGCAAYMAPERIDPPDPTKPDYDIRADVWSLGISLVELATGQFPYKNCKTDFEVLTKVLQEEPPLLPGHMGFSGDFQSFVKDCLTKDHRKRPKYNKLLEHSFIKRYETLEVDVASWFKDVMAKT
In words: Kinase assay of immunoprecipitated FLAG-JNKK2/MKK7 (GST-JNK1 substrate) pre-incubated with recombinant Gadd45β proteins or peptides. It counts as biochemical. The note with it: for inhibition of JNKK2/MKK7 activity (GST-JNK1 phosphorylation): FLAG-JNKK2 from 293 cells, 10 min pre-incubation with increasing concentrations of recombinant protein. The procedure: Next, the functional consequences, in vitro, of the physical interactions of Gadd45β with kinases in the JNK pathway were assessed. Murine and human, full-length Gadd45J3 proteins were purified from E. coli as GST-Gadd45β and His6-tagged Gadd45β (His6 disclosed as SEQ ID NO: 46), respectively, according to standard procedures. Prior to employing these proteins in in vitro assays, purity of all recombinant polypeptides was assured by >98%, by performing Coomassie blue staining of SDS polyacrylamide gels. Then, the ability of these proteins, as well as of control GST and His6-EF3 (His6 disclosed as SEQ ID NO: 46)proteins, to inhibit kinases in the JNK pathways was monitored in vitro. FLAG-tagged JNKK2, JNKK1, MKK3, and ASK1 were immunoprecipitated from transiently transfected 293 cells using anti-FLAG antibodies and pre-incubated for 10 minutes with increasing concentrations of recombinant proteins, prior to the addition of specific kinase substrates (i.e. GST-JNK1 with JNKK1 and JNKK2; GST-p38[…] with MKK3; GST-JNNK1 or GST-JNKK2 with ASK1). […] These findings indicate that, upon binding to Gadd45β, JNKK2 is effectively inactivated.
A question was whether Gadd45β inhibited active MKK7, in vitro. FLAG-MKK7 was immunoprecipitated from TNFα-treated or untreated 293 cells, and kinase assays were performed in the presence of purified His6-Gadd45β (His6 disclosed as SEQ ID NO: 46), GST-Gadd45β, or control proteins (FIG. 28d; see also FIG. 28g). […] Consistent with the in vivo findings (FIG. 27), the inhibitory activity of Gadd45β was specific. […] Indeed, the effects of Gadd45β on MKK7 phosphorylation by TNFα may be due inhibition of the MKK7 ability to auto-phoshorylate and/or to serve as substrate for upstream kinases. Altogether, the findings identify MKK7 as a target of Gadd45β, and of NF-[…]B, in the JNK cascade. Of interest, MKK7 is a selective activator of JNK, and its ablation abolishes JNK activation by TNFα. Thus, blockade of MKK7 is sufficient on its own to explain the effects of Gadd45β on JNK signaling—i.e. its specific and near-complete suppression of this signaling.
Active MKK7 was immunoprecipitated from TNFα-activated 293 cells and MKK7 kinase assays were performed using GST-JNK1 substrates and pure recombinant Gadd45β polypeptides (FIG. 37B; a schematic diagram representing the Gadd45βpolypeptides used is shown in FIG. 37A). […] MKK7 kinase assays were performed as in FIG. 37B, except that pure synthetic Gadd45, peptides (whose sequences are shown in FIG. 37C) were used instead of pure recombinant Gadd45β proteins. The amino acid region between amino acids 58 and 77 of Gadd45βis used for the Gadd45β-mediated inhibition of MKK7. […]

Entries after “also recorded” stand apart in the source; their conditions may differ.

B1: GST-Gadd45β: full-length murine Gadd45β directly fused to GST, purified from E. coli (protein)
chain: MTLEELVASDNAVQKMQAVTAAVEQLLVAAQRQDRLTVGVYEAAKLMNVDPDSVVLCLLAIDEEEEDDIALQIHFTLIQSFCCDNDIDIVRVSGMQRLAQLLGEPAETLGTTEARDLHCLLVTNCHTDSWKSQGLVEVASYCEESRGNNQWVPYISLEER
modifications: left off: a dimerising Fc or GST
notes: full-length murine Gadd45β directly fused to GST, purified from E. coli
B1: the “inhibition of JNKK2/MKK7 activity (GST-JNK1 phosphorylation)” value was “blocked GST-JNK1 phosphorylation by MKK7, in a dose-dependent manner; also recorded: effectively suppressed”.

B2: Gadd45β: purified recombinant His6-tagged Gadd45β protein; also used generically for the recombinant Gadd45β proteins (protein, UniProt O75293 1-160, looked up)
Growth arrest and DNA …: MTLEELVACDNAAQKMQTVTAAVEELLVAAQRQDRLTVGVYESAKLMNVDPDSVVLCLLAIDEEEEDDIALQIHFTLIQSFCCDNDINIVRVSGMQRLAQLLGEPAETQGTTEARDLHCLLVTNPHTDAWKSHGLVEVASYCEESRGNNQWVPYISLQER
modifications: His6 tag
notes: purified recombinant His6-tagged Gadd45β protein; also used generically for the recombinant Gadd45β proteins
With B2, the JNKK2 auto-phosphorylation entry (in vitro) was “inhibited”.

B3: His6-Gadd45β: human full-length Gadd45β purified from E. coli as His6-tagged protein (protein, UniProt O75293 1-160, looked up)
chain: B2 Growth arrest and DNA …
modifications: full-length His6 tag
notes: human full-length Gadd45β purified from E. coli as His6-tagged protein
Consider B3, for which the “inhibition of JNKK2/MKK7 activity (GST-JNK1 phosphorylation)” value is reported as “blocked GST-JNK1 phosphorylation by MKK7, in a dose-dependent manner; also recorded: effectively suppressed”.
